Patent US20150018233A1 (FRED HUTCHINSON CANCER RESEARCH CENTER, published 2015)
Numbering of substitutions follows the chain as printed.

B1: Gαs-Gα15-13 (SEQ ID NO: 7) (other)
chain: MGCLGNSKTEDQRNEEKAQREANKKIEKQLQKDKQVYRATHRLLLLGAGESGKSTIVKQMRILHVNGFNGEGGEEDVPDYASNSDGEKATKVQDIKNNLKEAIETIVAAMSNLVPPVELANPENQFRVDYILSVMNVPNFDFPPEFYEHAKALWEDEGVRACYERSNEYQLIDCAQYFLDKIDVIKQADYVPSDQDLLRCRVLTSGIFETKFQVDKVNFHMFDVGGQRDERRKWIQCFNDVTAIIFVVASSSYNMVIREDNQTNRLQEALNLFKSIWNNRWLRTISVILFLNKQDLLAEKVLAGKSKIEDYFPEFARYTTPEDATPEPGEDPRVTRAKYFIRDEFLRISTASGDGRHYCYPHFTCAVDTENIRRVFNDCRDSVLARYLDEINLL
B2: Gαs-Gαi-13 (SEQ ID NO: 5) (other)
chain: MGCLGNSKTEDQRNEEKAQREANKKIEKQLQKDKQVYRATHRLLLLGAGESGKSTIVKQMRILHVNGFNGEGGEEDVPDYASNSDGEKATKVQDIKNNLKEAIETIVAAMSNLVPPVELANPENQFRVDYILSVMNVPNFDFPPEFYEHAKALWEDEGVRACYERSNEYQLIDCAQYFLDKIDVIKQADYVPSDQDLLRCRVLTSGIFETKFQVDKVNFHMFDVGGQRDERRKWIQCFNDVTAIIFVVASSSYNMVIREDNQTNRLQEALNLFKSIWNNRWLRTISVILFLNKQDLLAEKVLAGKSKIEDYFPEFARYTTPEDATPEPGEDPRVTRAKYFIRDEFLRISTASGDGRHYCYPHFTCAVDTENIRRVFNDCRDVIIKNNLKDCGLF
B3: Gαs-Gαz-13 (SEQ ID NO: 6) (other)
chain: B2 chain with K385Q, D390Y, C391I, F394C

Columns and labels:
[1] = target: T1, M2 muscarinic acetylcholine receptor (M2AchR), rat (rat, UniProt P10980 1-466); assay: cell-based or functional assay
T1 sequence (looked up): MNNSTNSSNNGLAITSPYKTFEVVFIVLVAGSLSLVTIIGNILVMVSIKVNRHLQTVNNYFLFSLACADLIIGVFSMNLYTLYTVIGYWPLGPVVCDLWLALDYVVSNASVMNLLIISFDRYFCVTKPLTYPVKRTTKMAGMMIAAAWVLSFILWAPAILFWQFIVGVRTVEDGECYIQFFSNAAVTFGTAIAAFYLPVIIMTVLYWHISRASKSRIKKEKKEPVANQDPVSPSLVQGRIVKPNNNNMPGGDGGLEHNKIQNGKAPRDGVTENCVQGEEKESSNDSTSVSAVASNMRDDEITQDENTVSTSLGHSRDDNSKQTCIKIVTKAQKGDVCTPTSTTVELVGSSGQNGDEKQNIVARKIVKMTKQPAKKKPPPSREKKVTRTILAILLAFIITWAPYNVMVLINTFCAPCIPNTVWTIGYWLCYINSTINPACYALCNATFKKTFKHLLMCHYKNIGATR

[2] = target: sweet receptor heterodimer (T1 R2/T1 R3); assay: cell-based or functional assay

Row | Binder | increase in SEAP activity in response to the 10 uM acetylcholine ligand [1] | increase in SEAP activity (5 mM saccharin) [2] | increase in SEAP activity in response to 10 uM acetylcholine (CRE-SEAP reporter, HEK-293) [1] | increase in SEAP activity, cells transiently expressing the chimera (10 uM acetylcholine) [1]
1 | B1 | ~2 fold | – | – | –
2 | B2 | – | ~2 fold | 10 fold | ~10 fold
3 | B3 | ~2 fold | – | – | –
